US20160271157A1, “BETA-CATENIN” (UCL BUSINESS PLC, priority 2013, published 2016)

How the values were obtained:
[1] = system: 253J urinary tract (bladder) cancer cell line; test: Live [Ca2+]i imaging after addition of Wnt ligand, 253J; format: cell-based, human; conditions: 253J cells
Method: The imaging protocol was developed in the inventor's laboratory and has been described in detail, elsewhere (Wang at al., (2010) PLoS ONE 5, e10456). Briefly, 100000-200000 PC3, MCF7, 253J or Cos 7 cells were plated on 35 mm FluoroDish (WPI) and grown for 48 h; calcium indicators Fluo-4 (Invitrogen) and FuraRed (Invitrogen) at 1 ng/ml were added to FluoroDish containing only 1 ml of culture medium and incubated for 15-20 min at 37° C. The culture medium was removed and washed (×2) and replaced with 1 ml PBS. Live cell calcium Imaging was performed on an Olympus FluoView FV 1000 confocal microscope (Olympus […]) equipped with a 20× dry objective (numerical aperture=0.75). Calcium indicators were excited with an argon laser line (488 nm) and emissions recorded in the green channel (500-560 nm) for Fluo-4 and red channel (600-700 nm) for FuraRed after addition of vehicle control (PBS) or Wnt X (30-600 ng/ml). Images were acquired every 1.1 or 2.2 seconds for up to 600-800s; image and data acquisition was performed using FluoView 1000 software (Olympus, UK). Fluorescent intensity was measured and data exported as a tab delimited file for further analysis using a spreadsheet. All imaging experiments were performed in duplicate; intracellular calcium at 100 ng/ml was measured in at least 3-12 different passages (passage numbers 25 to 37) of cell line for each Wnt ligand. Wnt 11 was tested in at least 5 different passages at 3 different concentrations. […] The measurements were exported as a tab delimited file into a spreadsheet for further analysis and Fluo4/Fura Red ratios were calculated. […] The time constants (rise, dwell and fall times) were calculated by first fitting the Fluo4/FuraRed ratio to a single Gaussian function (Origin Lab Corp., MA); a lower (10%) and upper (90%) amplitude thresholding method was then used to calculate the time constants (s). Statistical significance was calculated using Mann Whitney U test.

[2] = system: β-catenin translocation to the nucleus; test: β-catenin immunocytochemistry, MCF7; format: cell-based, human; conditions: MCF7 breast cancer cell line
Method: Immunostaining was performed in two different laboratories, independently with the experimenter blind to the identity of the treatment. Either cells used in FluoroDish, post [Ca^2+]i experiments using dyes (see above) or grown in 8 well chamber glass slides (Lab Tek II, Nunc) were used. For Wnt ligand treatment, the culture medium replaced with PBS (without calcium) at 37° C. The experiments were replicated for Wnt ligand or vehicle control as described for [Ca^2+]i measurements. Briefly, Wnt ligands were added and chamber slides incubated at 37° C. for up to 20 min. Chamber wells were washed 3× with 0.5 ml PBS and cells were fixed with 0.5 ml 4% formalin for 30 min at 4° C. Cells were washed 3× with ice cold PBS and stored in 0.5 ml PBS at 4° C. for immunostaining. In some experiments PC3 cells were treated with thaspsigargin as described above.
For immunostaining cells were washed twice for 5 minutes in TBST (20 mM Tris pH 7.4, 0.9% NaCl, 0.1% Tween 20, Sigma). Cells were then incubated in 20% normal goat serum (NGS)/TBST for 30 min at room temperature, the chambers were drained and cells were incubated with mouse anti-β-catenin (ab22656, Abcam, UK) at 1:500 dilution in NGS/TBST overnight at 4° C. […]
Fluorescence immunocytochemical staining for β-catenin expression in cell lines was imaged using Olympus Fluoview 1000 Confocal Microscope (Olympus KeyMed) mounted on an Olympus IX81 inverted microscope using a 20×0.7 NA or 40×1.0 NA dry objective with a zoom of ×3.4′,6-diamidino-2-phenylindole (DAPI, nuclear counterstain) was excited at 405 nm with an emission of 415-500 nm; Cy3 (β-catenin label) signal was excited at 561 nm with an emission spectrum between 570-670 nm. […]
Nuclear co-localization of β-catenin was calculated by importing FV files for untreated, control or treated cells, into colocalization plugin of Fiji software (http://fiji.sc/Fiji) for Cy3 (β-catenin) and DAPI (nuclear) signals. […] Statistical significance between untreated and treated cells was calculated using Mann Whitney U test.

Molecule	[Ca2+]i release in response to Wnt ligand [1]	β-catenin translocation into the nucleus after Wnt treatment [2]
Wnt10B: Recombinant Wnt peptide purchased from R&D systems	activated [Ca^2+]i release	β-catenin translocation into the nucleus
Wnt5A: Recombinant Wnt peptide purchased from R&D systems (protein, UniProt P41221 62-380, looked up) Protein Wnt-5a: IIGAQPLCSQLAGLSQGQKKLCHLYQDHMQYIGEGAKTGIKECQYQFRHRRWNCSTVDNTSVFGRVMQIGSRETAFTYAVSAAGVVNAMSRACREGELSTCGCSRAARPKDLPRDWLWGGCGDNIDYGYRFAKEFVDARERERIHAKGSYESARILMNLHNNEAGRRTVYNLADVACKCHGVSGSCSLKTCWLQLADFRKVGDALKEKYDSAAAMRLNSRGKLVQVNSRFNSPTTQDLVYIDPSPDYCVRNESTGSLGTQGRLCNKTSEGMDGCELMCCGRGYDQFKTVQTERCHCKFHWCCYVKCKKCTEIVDQFVCK	activated [Ca^2+]i release	β-catenin translocation into the nucleus
Wnt9B: Recombinant Wnt peptide purchased from R&D systems (protein, UniProt O14905 23-357, looked up) Protein Wnt-9b: SYFGLTGREVLTPFPGLGTAAAPAQGGAHLKQCDLLKLSRRQKQLCRREPGLAETLRDAAHLGLLECQFQFRHERWNCSLEGRMGLLKRGFKETAFLYAVSSAALTHTLARACSAGRMERCTCDDSPGLESRQAWQWGVCGDNLKYSTKFLSNFLGSKRGNKDLRARADAHNTHVGIKAVKSGLRTTCKCHGVSGSCAVRTCWKQLSPFRETGQVLKLRYDSAVKVSSATNEALGRLELWAPARQGSLTKGLAPRSGDLVYMEDSPSFCRPSKYSPGTAGRVCSREASCSSLCCGRGYDTQSRLVAFSCHCQVQWCCYVECQQCVQEELVYTCKH	activated [Ca^2+]i release	β-catenin translocation into the nucleus
